Measurements published in the Human Domainome abundance scans (Beltran et al. 2025).
± gives the uncertainty stated by the source.

B1: Dynamin-binding protein, residues 242 to 304; numbered along this chain, Q6XZF7 (parent)
chain: EEPGTYGVALYRFQALEPNELDFEVGDKIRILATLEDGWLEGSLKGRTGIFPYRFVKLCPDTR

Variants of: B1
Assay: abundance fitness (aPCA) (normalised: wild type 0, dead -1); higher = more abundant; growth selection in yeast, the domain comes from the species named
Conditions: Homo sapiens

Abundance fitness of substitutions, site by site:
K57: Y -0.411 ± 0.059, H -0.136 ± 0.057, S -0.088 ± 0.038, A -0.318 ± 0.072, V -0.637 ± 0.068, L -0.562 ± 0.074, W -0.677 ± 0.16, Q -0.062 ± 0.1, I -0.576 ± 0.071, R -0.041 ± 0.047, C -0.406 ± 0.054, G -0.58 ± 0.072, E -0.6 ± 0.23, T -0.167 ± 0.058, D -0.257 ± 0.055, F -0.697 ± 0.081, P -0.746 ± 0.12
G49: H -0.807 ± 0.17, P -1.08 ± 0.33, I -0.59 ± 0.12, S -0.504 ± 0.088, L -0.887 ± 0.16, Y -0.805 ± 0.13, F -0.735 ± 0.1, M -0.711 ± 0.4, D -0.574 ± 0.11, V -0.782 ± 0.088, W -0.601 ± 0.35, T -0.829 ± 0.18, C -0.422 ± 0.071, N -0.499 ± 0.094
F55: Q -0.774 ± 0.12, A -0.091 ± 0.04, S -0.348 ± 0.035, C -0.075 ± 0.036, W -0.374 ± 0.07, P -0.818 ± 0.074, E -0.67 ± 0.1, R -0.621 ± 0.049, Y 0.079 ± 0.034, V -0.614 ± 0.043, D -0.621 ± 0.051, T -0.472 ± 0.047, H -0.189 ± 0.041, L -0.126 ± 0.034, K -0.748 ± 0.14, N -0.399 ± 0.044
R47: H -0.283 ± 0.08, W -0.676 ± 0.24, F -0.713 ± 0.086, A -0.552 ± 0.12, V -0.477 ± 0.065, Q -0.588 ± 0.25, M -0.689 ± 0.18, K 0.115 ± 0.2, E 0.018 ± 0.11, D -0.743 ± 0.13, G -0.604 ± 0.068, T -0.678 ± 0.16, P -1.09 ± 0.4, C -0.578 ± 0.086, Y -0.282 ± 0.073, L -0.453 ± 0.084
K45: Q -0.157 ± 0.15, T -0.791 ± 0.13, R -0.168 ± 0.071, A -0.115 ± 0.077, E 0.013 ± 0.14, V -0.728 ± 0.11, Y -0.347 ± 0.1, C -0.429 ± 0.081, G -0.113 ± 0.07, I -0.696 ± 0.095, S -0.296 ± 0.055, N 0.037 ± 0.061, D 0.104 ± 0.075, H 0.081 ± 0.076, M -0.317 ± 0.15, F -0.32 ± 0.08, P -0.429 ± 0.13, L -0.502 ± 0.081
T48: W -0.977 ± 0.29, V -0.075 ± 0.048, S -0.351 ± 0.058, Q -0.203 ± 0.12, G -0.685 ± 0.095, D -0.818 ± 0.11, K 0.112 ± 0.091, M -0.916 ± 0.27, F -0.49 ± 0.067, A -0.699 ± 0.11, L -0.436 ± 0.063, R -0.105 ± 0.062, C -0.286 ± 0.062, P -0.867 ± 0.18, N -0.453 ± 0.076, I -0.214 ± 0.058
P60: V -0.174 ± 0.053, L -0.434 ± 0.077, E -0.076 ± 0.15, G 0.003 ± 0.049, K 0.054 ± 0.11, M -0.317 ± 0.14, R -0.245 ± 0.063, A -0.059 ± 0.074, C -0.15 ± 0.063, F -0.149 ± 0.061, N -0.26 ± 0.066, W -0.274 ± 0.16, Q 0.087 ± 0.15, Y -0.113 ± 0.062, I -0.18 ± 0.06, T 0.088 ± 0.07
I50: D -0.91 ± 0.14, W -0.693 ± 0.19, G -0.823 ± 0.091, K 0.153 ± 0.13, M -0.298 ± 0.12, H -0.681 ± 0.12, T -0.306 ± 0.082, F -0.598 ± 0.077, S -0.541 ± 0.066, N -0.43 ± 0.077, L -0.383 ± 0.061, C -0.275 ± 0.055, R 0.138 ± 0.058, Y -0.533 ± 0.073, E -0.341 ± 0.15, A -0.379 ± 0.08, P -0.973 ± 0.27, Q -0.093 ± 0.12
V56: W -0.826 ± 0.33, I -0.141 ± 0.058, P -0.334 ± 0.14, Y -0.535 ± 0.094, G -0.729 ± 0.075, N -0.711 ± 0.11, C -0.864 ± 0.12, S -0.719 ± 0.08, H -0.696 ± 0.12, D -0.716 ± 0.099, L -0.412 ± 0.093, Q -0.664 ± 0.22, T -0.594 ± 0.087, F -0.525 ± 0.07, A -0.521 ± 0.094, R -0.887 ± 0.14
F51: P -0.524 ± 0.14, S -0.794 ± 0.081, E -0.854 ± 0.26, L -0.492 ± 0.079, R -0.655 ± 0.097, C -0.748 ± 0.092, W -0.59 ± 0.16, H -0.792 ± 0.12, Y -0.497 ± 0.066, K -0.623 ± 0.27, V -0.224 ± 0.055, I -0.752 ± 0.1, T -0.681 ± 0.11, D -0.862 ± 0.17, A -0.919 ± 0.14, N -0.791 ± 0.094, G -0.85 ± 0.095
C59: F 0.006 ± 0.053, L -0.049 ± 0.067, N -0.393 ± 0.09, H -0.227 ± 0.1, T -0.192 ± 0.085, P -0.546 ± 0.17, I 0.038 ± 0.061, R -0.339 ± 0.062, D -0.198 ± 0.066, Q 0.117 ± 0.13, G -0.225 ± 0.048, K -0.086 ± 0.22, W -0.324 ± 0.11, V 0.024 ± 0.047, Y 0.007 ± 0.051, E -0.109 ± 0.11
L58: D -0.366 ± 0.069, A -0.594 ± 0.082, V -0.064 ± 0.044, I -0.055 ± 0.056, R -0.12 ± 0.056, C -0.409 ± 0.06, P -0.379 ± 0.092, M -0.032 ± 0.1, Y -0.473 ± 0.06, F -0.186 ± 0.048, K -0.55 ± 0.14, Q -0.656 ± 0.23, N -0.914 ± 0.12, T -0.301 ± 0.072, E -0.708 ± 0.17, S -0.64 ± 0.06
T62: I -0.034 ± 0.055, V -0.04 ± 0.055, R -0.046 ± 0.065, H 0.044 ± 0.054, W -0.37 ± 0.19, Q -0.092 ± 0.1, G 0.046 ± 0.049, P 0.079 ± 0.06, K -0.267 ± 0.15, A -0.022 ± 0.057, D 0.021 ± 0.051, N 0.105 ± 0.052, C -0.198 ± 0.062, L -0.214 ± 0.058, F -0.137 ± 0.057, Y -0.127 ± 0.052, E -0.004 ± 0.17
R54: S 0.046 ± 0.048, Y -0.286 ± 0.07, I -0.545 ± 0.13, M -0.583 ± 0.16, C -0.373 ± 0.071, E -0.057 ± 0.13, P -0.525 ± 0.15, W -0.292 ± 0.12, G -0.034 ± 0.046, Q -0.008 ± 0.11, N 0.238 ± 0.063, H 0.027 ± 0.064, F -0.261 ± 0.065, A -0.049 ± 0.063, V -0.07 ± 0.1, T -0.24 ± 0.094, L -0.544 ± 0.091, D -0.052 ± 0.057
P52: A -0.68 ± 0.097, F -0.826 ± 0.11, S -0.85 ± 0.074, G -0.534 ± 0.054, Y -0.569 ± 0.11, H -0.734 ± 0.13, Q -0.912 ± 0.49, I -0.741 ± 0.11, N -0.767 ± 0.11, L -0.567 ± 0.097, V -0.816 ± 0.095, C -0.7 ± 0.082, R -0.855 ± 0.088, K -0.794 ± 0.33, M -0.401 ± 0.23, D -0.817 ± 0.12, T -0.783 ± 0.13, W -0.583 ± 0.22
D61: Q -0.178 ± 0.14, W -0.195 ± 0.1, P -0.027 ± 0.061, M -0.144 ± 0.11, C -0.112 ± 0.058, H -0.145 ± 0.059, A -0.095 ± 0.057, T -0.08 ± 0.077, I -0.237 ± 0.06, E 0.186 ± 0.095, K -0.096 ± 0.19, G -0.063 ± 0.06, F -0.247 ± 0.047, Y -0.391 ± 0.057, L -0.185 ± 0.054
G46: F -0.687 ± 0.051, S -0.474 ± 0.038, H -0.73 ± 0.077, C -0.719 ± 0.053, Q -0.753 ± 0.16, I -0.711 ± 0.059, R -0.612 ± 0.05, Y -0.802 ± 0.065, P -0.611 ± 0.081, V -0.6 ± 0.041, E -0.473 ± 0.12, W -0.725 ± 0.12, D -0.444 ± 0.047, N -0.326 ± 0.048, K -0.757 ± 0.28, A -0.647 ± 0.051, L -0.749 ± 0.059, M -0.769 ± 0.17
L44: V 0.012 ± 0.063, H -0.425 ± 0.15, Y -0.393 ± 0.088, G -0.868 ± 0.12, P -0.575 ± 0.23, W -0.506 ± 0.21, M -0.58 ± 0.28, N -0.567 ± 0.12, C -0.159 ± 0.076, R -0.367 ± 0.099, T -0.416 ± 0.14, I -0.133 ± 0.074, S -0.313 ± 0.072, D -0.385 ± 0.12, A -0.399 ± 0.11
S43: L -0.368 ± 0.082, Q -0.133 ± 0.16, V -0.326 ± 0.063, M -0.127 ± 0.13, H -0.373 ± 0.089, I -0.539 ± 0.082, W -0.393 ± 0.27, E 0.219 ± 0.14, Y -0.085 ± 0.055, F -0.226 ± 0.068, R -0.346 ± 0.076, K -0.148 ± 0.15, N -0.308 ± 0.064, P -0.945 ± 0.21
Y53: W 0.108 ± 0.25, E 0.282 ± 0.17, V 0.263 ± 0.052, T 0.223 ± 0.065, P 0.37 ± 0.1, S 0.329 ± 0.044, F -0.079 ± 0.067, L 0.077 ± 0.061, N 0.138 ± 0.068, C 0.203 ± 0.053, A 0.338 ± 0.079, M 0.265 ± 0.11, H -0.006 ± 0.082, D 0.227 ± 0.053, K 0.251 ± 0.29, R 0.211 ± 0.062, Q 0.154 ± 0.18, I 0.048 ± 0.055
R63: D 0.125 ± 0.087, F -0.216 ± 0.089, A 0.087 ± 0.073, E -0.455 ± 0.29, C -0.06 ± 0.062
